According to the DeepSol protein solubility set:

Assay: soluble on expression in E. coli; label from the status in PepcDB or PDB records

With “MIEISTSSTTTTLLVAGDLDLAEREQFPEVTARVVGLRRQLLVIDMCRVTFMDSTGAAFLISLADAGRRRGGATVLRGAADRDLFVLEICGALELFRIDADHHCELGAELPSAPEGAPAPA” the “soluble on expression in E. coli” value was “not soluble”.

With “MRGSHHHHHHDDYDGIPNLTAVQISPNADPALGLEYPVRPPVPGAGGLNASAKGIHSIAIGATAEAAKGAAVAVGAGSIATGVNSVAIGPLSKALGDSAVTYGAASTAQKDGVAIGARASTSDTGVAVGFNSKADAKNSVAIGHSSHVAANHGYSIAIGDRSKTDRENSVSIGHESLNRQLTHLAAGTKDTDAVNVAQLKKEIEKTQENTNKRSAELLANANAYAD” the “soluble on expression in E. coli” value was “soluble”.

With “SLKEVLESKLNDRPDANVLIGLGRNISGEAVLAELNKMPHLLVAGATGSGKSVCVNGIITSILMRAKPHEVKMMMIDPKMVELNVYNGIPHLLAPVVTDPKKASQALKKVVNEMERRYELFSHTGTRNIEGYNDYIKRANNEEGAKQPELPYIVVIVDELADLMMVASSDVEDSITRLSQMARAAGIHLIIATQRPSV” the “soluble on expression in E. coli” value was “not soluble”.

With “MNKNVMVKGLTALTILTILTSLGFAENISNQPHSIAKAEKNVKEITDATKEPYNSVVAFVGGTGVVVGKNTIVTNKHIAKSNDIFKNRVSAHHSSKGKGGGNYDVKDIVEYPGKEDLAIVHVHETSTEGLNFNKNVSYTKFADGAKVKDRISVIGYPKGAQTKYKMFESTGTINHISGTFMEFDAYAQPGNSGSPVLNSKHELIGILYAGSGKDESEKNFGVYFTPQLKEFIQNNIEK” the “soluble on expression in E. coli” value was “not soluble”.

With “MSLAISQEQKQAIDQALTERLLHHPFYQEAKVIATYLSFSHEFQTRELIEQALKDGKKVLIPKTYPKGRMEFVAYDPQQLVKTSFALLEPQGDVEVVDASQIDLIHVPGLAFTTKGYRIGYGGGYYDRYLEHFSGRTLSTIYPCQIQDFIPENHDIPVQEVLIDEGNLEGHHHHHH” the “soluble on expression in E. coli” value was “soluble”.

For “MPLGLGRRKKAPPLVENEEAEPGRGGLGVGEPGPLGGGGSGGPQMGLPPPPPALRPRLVFHTQLAHGSPTGRIEGFTNVKELYGKIAEAFRLPTAEVMFCTLNTHKVDMDKLLGGQIGLEDFIFAHVKGQRKEVEVFKSEDALGLTITDNGAGYAFIKRIKEGSVIDHIHLISVGDMIEAINGQSLLGCRHYEVARLLKELPRGRTFTLKLTEPRKAFDMISQRSAGGRPGSGPQLGTGRGTLRLRSRGPATVEDLPSAFEEKAIEKVDDLLESYMGIRDTELAATMVELGKDKRNPDELAEALDERLGDFAFPDEFVFDVWGAIGDAKVGRYLEHHHHHH”, the “soluble on expression in E. coli” value was “not soluble”.

For “MSLAKSVFYYHRCQFDVKDKYGDLKQRITELYHQHKGRYGYRRVTAALKQLDCHHNHKLIAKLMHDMKLSAKIRRQKYRSYKGQQGKIAKNYLKRQFHADKPNKRWLTDITEFKVGDDKLYLSPILDCYNNEIVSYTLSKRPTYDLVGKMLEDALAKTKACRDNKLMLHSDQGWHYQMRLFGQVLKQHGIKQSMSRKGNCLDNALMEGFFGTLKCETIYIEKPNSIEGLEKQIHEYIHYYNHERIQLKLKGLSPVKYRTQSLIEGHHHHHH”, the “soluble on expression in E. coli” value was “not soluble”.

With “MKLVFYGAGNMAQAIFTGIINSNNLNANDIYLTNKSNEQALKSFAEKLGVNYSYDDEALLKDADYVFLGTKPHDFENLANRIREHITNDNRFISIMAGLSIDYIRQQLNTNNPLARIMPNTNAQVGHSVTGISFSNNFDPKSKNEVDELINAFGSVIEVSEEHLHQVTAITGSGPAFLYHVFEQYVKAGTELGLERNQVEESIRNLIIGTSKMIERSDLSMSQLRKNITSKGGTTQAGLDALSQYDIVSMFEDCLGAAVNRSMELSHKEDELEHHHHHH” the “soluble on expression in E. coli” value was “soluble”.

In the case of “MSLKILVIGGTGNIGLPLIQYLDQQVGVQVVAGAHNLHKDEQLLATYPDVEIRRFDFLDETTFDAALRGIQKVFFVRPPQLAKPKQDMWPFLKCLQAHHIEQVVFVSLMGVEHNPMTPHHQIEQMIEQLQLPYTFIRPSFFMQNLNTTHRVDIQQNHDLFIPAGRSKTSFIDTRDIGEIAGVALLDTQYLQQKLTVTGPEALTYQQIAALMTESFGHPVTYHRPSLWRFRRVMLKRGIKKDYVNVMVMLYLITQLGNAKRVTDTAEKVLGHAPHTMTTYLRDYADQLQEGHHHHHH”, the “soluble on expression in E. coli” value was “not soluble”.

For “MGSDKIHHHHHHMISFFLSDLIKSILNIQDNNISFSEEECCQVTQKGDYLLKVFKGFLKSDYCTCPHCSSKNIVKNGSRHRKIKYIPIQNYNIELELTVQRYICKDCKKNFSPSTNIVSDNSSISNNLKYAIALELQKNISLTSIAKRYNISIPSVQRIMDNCYSDFKVNKKHLPEAICIDEFKSVKNIDGAMSFVFADYQSKSIIDIVEDRRLHSLTEYFSRFSLEARNNVKYICMDMYTSYISLVNSIFPNAKIVLDKFHIVNLVNRAFNQTRISIMNSIQDDSLKRKFKLFWKSLLKYYPDLCQINYYCQSFKRKLSSKLSLRKKP”, the “soluble on expression in E. coli” value was “not soluble”.

In the case of “MSIEVIAVRLTKGMDLKLSLAKLVAEHDIKAGSIASCVGCISDLNLRLAGAESTLTKREPFEIVSVMGTLTPEHQHVHISVSDREGRVWGGHLLEGTVIDTTAELIIHSYSELEFTRAMDDSTGYTELQVNPSKLEHHHHHH”, the “soluble on expression in E. coli” value was “not soluble”.

In the case of “MDQGPINRPHFFFTTAPMPCPYLEGHLERKMVTDLTGPEAERLHESLSRAGFRRSHTIAYAPVCPGCTACVPVRIRARAFVKNKSFRRIVRANAGVTAEYVPARATVEQFHLFSQYQQARHGESDMALMGFFDYRSMVEDSPISTSIAEFREAGGELVAACLIDHLSDGLSAVYSFFNTTLPQSRGLGTWMILWMVDETVRRDLDHVYLGYWIAESSKMAYKERFQPLEVFGRRGWIAFDERGRPGLEHHHHHH”, the “soluble on expression in E. coli” value was “not soluble”.

With “MEPVTSSEREAELERELDLLRKELNIEQKMNSELKRLMIATLSDELQGQVEALTEDKVRLAHRVDEYMGKLMVEDEESDRLRIDRDVWKCKFLAQSIRCDELTSKNEYLLKTLVGIQQAVKTKNVTSDEISDFTQLDLQPLFHRSPCEERVRPITAKYTNLTIACCKNCMGRDIQLL” the “soluble on expression in E. coli” value was “not soluble”.

With “MGHHHHHHHHHHSSGHIEGRHIGSGVEAPEQLEEHGISVYATIPMSEWLDKRTRLRKKNLFSNQQRHRTKNIPFLAVDNPADSAVEAVRALRTSLHFAMMETENNILMITGATPDSGKTFVSSTLAAVIAQSDQKVLFIDADLRRGYSHNLFTVSNEHGLSEYLAGKDELNKVIQHFGKGGFDVITRGQVPPNPSELLMRDRMRQLLEWANDHYDLVIVDTPPMLAVSDAAVVGRSVGTSLLVARFGLNTAKEVSLSMQRLEQAGVNIKGAILNGVIKRASTAYSYGYNYYGYSYSEKE” the “soluble on expression in E. coli” value was “soluble”.

In the case of “MGSDKIHHHHHHMTSAGTIEDAKGPAELRLALRQMLGEDIVLSETEEMLRFCRDWHGDVTTGTVAVIRPRSTQQVAAAVKACRELGLSIVPQGGNTGLVLGAIPDAPERQVVLSLSRMNRIRKIDPADFSAVVESGCILSELKDAIAKMGMFFPLALGAQGSCQIGGNVSTNAGGVNVLRYGMTRELVLGLEVVLPDGSILEGLSTLRKDNRGIDLKQLFIGAEGTLGIITAVSITLTPYPDHVATALLGLASLEDAIRLYRRARRDCCDLMSAFEFMPPLAFTLAQEAMPDLPIPISAEYPAYVLMEISGSGLVDVDDLMQRFLEGAMEEGLVLDGTIAASQTQARNLWLIREGMNEGQAKRGTHMRTDISVPLSQLASFVEEAEKAVSEALPGAVSVSYGHVGDGNVHLNVLPPAGSTPEERIQLIYKAKTVVNEVLDRYTGSISAEHGIGRLKRPDFDARLPATRRKLLTALKHAVDPEMIMNPGCQLRF”, the “soluble on expression in E. coli” value was “not soluble”.

For “MGSDKIHHHHHHENLYFQGMRISANFDGGNIETISLANPDDIQLAIRPDAGGEFYQWFNFRFEATIGKTYTLNILNAGGASYLKGWEDYQAVASYDRQTWFRLPTEYKDGKLSISVELDCEAIQIAYFTPYSYERHLDLISAVQLHPLVSTEHLGLTLDGRDMTLVKVGDDDPSKKSIWITARQHPGETMAEWLVEGLLNQLLDNDCPTSKALLDKANFYIVPNMNPDGSVRGHLRTNAVGANLNREWQTPSLERSPEVYYVVNKMHETGVDLFYDVHGDEGLPYVFLAGCEGIPNYSDKLASLQQDFVAALSLASADFQTEFGYDKDEPGKANLTVACNWVANTFKCLSNTLEMPFKDNANLADPFQGWSPERSVYFGEASLIAMRAVIDKIGQ”, the “soluble on expression in E. coli” value was “soluble”.

For “MGAAKPIFVEHSIVIDRPAQQVYDYWRKLENLPQIMSHLESVTVLDDKRSRWVAKAPLGTHVEWEAEVVNDKPGERIGWHSLPGATVDNAGSVQFESLPDDKTRVHVALSYRPPAGPLGAAVAKLFGEEPSQQIAEDLQKFKATFEGLEHHHHHH”, the “soluble on expression in E. coli” value was “not soluble”.

In the case of “MNLDDIINSMTPEVYQRLSTAVELGKWPDGVALTEEQKENCLQLVMLWQARHNTEAQHMTIDTNGQMVMKSKQQLKEDFGISAKPIAMFK”, the “soluble on expression in E. coli” value was “not soluble”.

For “MGSDKIHHHHHHMIAKIIMGGGKMIKRVKTGIPGMDEILHGGIPERNIVLISGGPGTGKTIFSQQFIWNGLQMGEPGIYVALEEHPVQVKKNMEVFGWNVDPFEKEGKFAIVDAFTGGIGEYAEKEKYVVRDIDDVRELAEVLKRAVRETQAKRVVIDSVTTLYITKPAMARSIIFQLKRILSGLGCTSLFVSQVSVTEKGFGGPGVEHGVDGIIRLDLDEIDGELKRSLIVWKMRGTSHSMRRHPFEITDKGIVIYPSEGGEGR”, the “soluble on expression in E. coli” value was “not soluble”.

For “MASNQIEGAVVGIRVNDGIAAAPVVLFTHEMPAVPERDFQSEQGEIERVKRAIGVVVQHLQEQAKQPKGEIFSAHSMMLSDPELWASVESRIQTGMIAEQAWIESLQTLADEFRQAESQYMREREADVHDIARQVMVEMTGVTPNAIDIQEPSILLARDLMPSDVAGLDKSKVLGICLSEGGKTSHSAILARAMGIPAMVKAQGCLDAVRAGQVVTIDGFRGHLWFSPSDAIQQELEAQQIEWQSTRQSALASAQQA”, the “soluble on expression in E. coli” value was “not soluble”.

With “MQDPYVKEAENLKKYFNAGHSDVADNGTLFLGILKNWKEESDRKIMQSQIVSFYFKLFKNFKDDQSIQKSVETIKEDMNVKFFNSNKKKRDDFEKLTNYSVTDLNVQRKAIDELIQVMAEFSTEEQQEGPYVKEAENLKKYFNAGHSDVADNGTLFLGILKNWKEESDRKIMQSQIVSFYFKLFKNFKDDQSIQKSVETIKEDMNVKFFNSNKKKRDDFEKLTNYSVTDLNVQRKAIHELIQVMAELSPAAKTGKRKRSQMLFRG” the “soluble on expression in E. coli” value was “soluble”.

In the case of “MLADKESLIEALKLALSTEYNVKRNFTQSVEIILTFKGIDMKKGDLKLREIVPLPKQPSKAKRVLVVPSSEQLEYAKKASPKVVITREELQKLQGQKRPVKKLARQNEWFLINQESMALAGRILGPALGPRGKFPTPLPNTADISEYINRFKRSVLVKTKDQPQVQVFIGTEDMKPEDLAENAIAVLNAIENKAKVETNLRNIYVKTTMGKAVKVKR”, the “soluble on expression in E. coli” value was “soluble”.

With “MSTLKIAPSILAADYANFASELARIEETDAEYVHIDIMDGQFVPNISFGADVVASMRKHSKLVFDCHLMVVDPERYVEAFAQAGADIMTIHTESTRHIHGALQKIKAAGMKAGVVINPGTPATALEPLLDLVDQVLIMTVNPGFGGQAFIPECLEKVATVAKWRDEKGLSFDIEVDGGVDNKTIRACYEAGANVFVAGSYLFKASDLVSQVQTLRTALNV” the “soluble on expression in E. coli” value was “soluble”.

For “MSLDTPTHLTLMVSGTAKMIYLPATLAQRLGYFRDEGLDVELLSQPAGVDAESELLTGYAQGVVGFYDHTIDLQTKGKEVRAIVVFSHVPGEAEVVSTRLPATVQSLHDLRGRTLGVTGLGSSTSFLTRHLMAQQGLGPGEYTMLPVGAEHSFVSALRSGRIDAGMTTDPTATRLIRNKEARMLLDLRTIESTRAALGGPYPAACLYVQTEWLEAHPELATKLARAFVRTLRYLRSHRAEDIAAHMPPEFRRDRPDVYMQALIAALPTFSDDGRMPADGPATVLRVLSTSNPNARDKHIDLSRTYTNRFVDQAKEGHHHHHH”, the “soluble on expression in E. coli” value was “soluble”.

In the case of “MQASDRFNINSQLEHLQAKYVGTGHADLSRFEWAVNIQRDSYASYIGHYPMLSYFAIAENESIGRERYNFMQKMLLPCGLPPEREEE”, the “soluble on expression in E. coli” value was “soluble”.
